According to US20110091994A1, “Methods for Screening Compounds for Treating and/or Preventing an Hepatitis C Virus Infection” (priority 2008, published 2011):
Read-outs that look alike come from different tables or passages of the source.

Experiments:
[1] = molecular target: T1, HCV ORFs (Gal4-DB fusions) (Hepatitis C virus genotype 1b, UniProt Q9WMX2); assay type: binding, HCV genotype 1b, isolate con1; conditions: human protein as prey
T1 construct: expressed in transfected cells; host or cells: Saccharomyces cerevisiae MAV203 (IMAP1) / AH109 (IMAP2)

[2] = tested on: HCV ORFs (Gal4-DB fusions); assay type: binding, HCV genotype 1b, isolate con1; conditions: human protein listed by gene symbol; the value names the HCV protein it interacts with
[3] = molecular target: T2, HCV proteins (Hepatitis C virus genotype 1b, UniProt Q9WMX2); assay: Validation by Y2H pairwise matrices; assay type: binding;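 further: yeast two-hybrid pairwise tests of interactions first found in Y2H screens of HCV bait proteins against human cDNA libraries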
T2 construct: expressed in transfected cells

[4] = validation of interaction with HCV protein NS3
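Wherever IMAP Y2H IMAP1 (number of IST) is given: yeast two-hybrid screens using HCV genotype 1b proteins fused to Gal4-DB as baits against prey cDNA libraries from human spleen and foetal brain, IMAP1 via transformation and IMAP2 via mating.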
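Wherever Interaction with viral protein is given: yeast two-hybrid screens using HCV genotype 1b proteins fused to Gal4-DB as baits against prey cDNA libraries from human spleen and foetal brain, IMAP1 via transformation and IMAP2 via mating.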

| Molecule | IMAP Y2H IMAP1 (number of IST) ([1]; HCV protein NS4A as bait) | Interaction with viral protein [2] | Y2H matrices ([3]; validation of interaction with HCV protein NS4A) | IMAP Y2H IMAP1 (number of IST) ([1]; HCV protein NS2 as bait) | Y2H matrices ([3]; validation of interaction with HCV protein NS2) | IMAP Y2H IMAP1 (number of IST) ([1]; HCV protein NS3 as bait) | Y2H matrices [3, 4] |
| --- | --- | --- | --- | --- | --- | --- | --- |
| ELAC2 (protein, UniProt Q9BQ52 17-826, looked up) Zinc phosphodiesterase ELAC …: SQGRTISQAPARRERPRKDPLRHLRTREKRGPSGCSGGPNTVYLQVVAAGSRDSGAALYVFSEFNRYLFNCGEGVQRLMQEHKLKVARLDNIFLTRMHWSNVGGLSGMILTLKETGLPKCVLSGPPQLEKYLEAIKIFSGPLKGIELAVRPHSAPEYEDETMTVYQIPIHSEQRRGKHQPWQSPERPLSRLSPERSSDSESNENEPHLPHGVSQRRGVRDSSLVVAFICKLHLKRGNFLVLKAKEMGLPVGTAAIAPIIAAVKDGKSITHEGREILAEELCTPPDPGAAFVVVECPDESFIQPICENATFQRYQGKADAPVALVVHMAPASVLVDSRYQQWMERFGPDTQHLVLNENCASVHNLRSHKIQTQLNLIHPDIFPLLTSFRCKKEGPTLSVPMVQGECLLKYQLRPRREWQRDAIITCNPEEFIVEALQLPNFQQSVQEYRRSAQDGPAPAEKRSQYPEIIFLGTGSAIPMKIRNVSATLVNISPDTSLLLDCGEGTFGQLCRHYGDQVDRVLGTLAAVFVSHLHADHHTGLPSILLQRERALASLGKPLHPLLVVAPNQLKAWLQQYHNQCQEVLHHISMIPAKCLQEGAEISSPAVERLISSLLRTCDLEEFQTCLVRHCKHAFGCALVHTSGWKVVYSGDTMPCEALVRMGKDATLLIHEATLEDGLEEEAVEKTHSTTSQAISVGMRMNAEFIMLNHFSQRYAKVPLFSPNFSEKVGVAFDHMKVCFGDFPTMPKLIPPLKALFAGDIEEMEERREKRELRQVRAALLSRELAGGLEDGEPQQKRAHTEEPQAKKVRAQ | 1 | NS4A | + |  |  |  |  |
| POU3F2 (protein, UniProt P20265 1-443, looked up) POU domain, class 3, …: MATAASNHYSLLTSSASIVHAEPPGGMQQGAGGYREAQSLVQGDYGALQSNGHPLSHAHQWITALSHGGGGGGGGGGGGGGGGGGGGGDGSPWSTSPLGQPDIKPSVVVQQGGRGDELHGPGALQQQHQQQQQQQQQQQQQQQQQQQQQRPPHLVHHAANHHPGPGAWRSAAAAAHLPPSMGASNGGLLYSQPSFTVNGMLGAGGQPAGLHHHGLRDAHDEPHHADHHPHPHSHPHQQPPPPPPPQGPPGHPGAHHDPHSDEDTPTSDDLEQFAKQFKQRRIKLGFTQADVGLALGTLYGNVFSQTTICRFEALQLSFKNMCKLKPLLNKWLEEADSSSGSPTSIDKIAAQGRKRKKRTSIEVSVKGALESHFLKCPKPSAQEITSLADSLQLEKEVVRVWFCNRRQKEKRMTPPGGTLPGAEDVYGGSRDTPPHHGVQTPVQ |  | NS2 |  | 1 | + |  |  |
| ACTN1 (protein, UniProt P12814 1-892, looked up) Alpha-actinin-1: MDHYDSQQTNDYMQPEEDWDRDLLLDPAWEKQQRKTFTAWCNSHLRKAGTQIENIEEDFRDGLKLMLLLEVISGERLAKPERGKMRVHKISNVNKALDFIASKGVKLVSIGAEEIVDGNVKMTLGMIWTIILRFAIQDISVEETSAKEGLLLWCQRKTAPYKNVNIQNFHISWKDGLGFCALIHRHRPELIDYGKLRKDDPLTNLNTAFDVAEKYLDIPKMLDAEDIVGTARPDEKAIMTYVSSFYHAFSGAQKAETAANRICKVLAVNQENEQLMEDYEKLASDLLEWIRRTIPWLENRVPENTMHAMQQKLEDFRDYRRLHKPPKVQEKCQLEINFNTLQTKLRLSNRPAFMPSEGRMVSDINNAWGCLEQVEKGYEEWLLNEIRRLERLDHLAEKFRQKASIHEAWTDGKEAMLRQKDYETATLSEIKALLKKHEAFESDLAAHQDRVEQIAAIAQELNELDYYDSPSVNARCQKICDQWDNLGALTQKRREALERTEKLLETIDQLYLEYAKRAAPFNNWMEGAMEDLQDTFIVHTIEEIQGLTTAHEQFKATLPDADKERLAILGIHNEVSKIVQTYHVNMAGTNPYTTITPQEINGKWDHVRQLVPRRDQALTEEHARQQHNERLRKQFGAQANVIGPWIQTKMEEIGRISIEMHGTLEDQLSHLRQYEKSIVNYKPKIDQLEGDHQLIQEALIFDNKHTNYTMEHIRVGWEQLLTTIARTINEVENQILTRDAKGISQEQMNEFRASFNHFDRDHSGTLGPEEFKACLISLGYDIGNDPQGEAEFARIMSIVDPNRLGVVTFQAFIDFMSRETADTDTADQVMASFKILAGDKNYITMDELRRELPPDQAEYCIARMAPYTGPDSVPGALDYMSFSTALYGESDL |  | NS3 |  |  |  | 9 | + |
| AEBP1 (protein, UniProt Q8IUX7 26-1158, looked up) Adipocyte enhancer-binding …: QTVLTDDEIEEFLEGFLSELEPEPREDDVEAPPPPEPTPRVRKAQAGGKPGKRPGTAAEVPPEKTKDKGKKGKKDKGPKVPKESLEGSPRPPKKGKEKPPKATKKPKEKPPKATKKPKEKPPKATKKPKEKPPKATKKPPSGKRPPILAPSETLEWPLPPPPSPGPEELPQEGGAPLSNNWQNPGEETHVEAREHQPEPEEETEQPTLDYNDQIEREDYEDFEYIRRQKQPRPPPSRRRRPERVWPEPPEEKAPAPAPEERIEPPVKPLLPPLPPDYGDGYVIPNYDDMDYYFGPPPPQKPDAERQTDEEKEELKKPKKEDSSPKEETDKWAVEKGKDHKEPRKGEELEEEWTPTEKVKCPPIGMESHRIEDNQIRASSMLRHGLGAQRGRLNMQTGATEDDYYDGAWCAEDDARTQWIEVDTRRTTRFTGVITQGRDSSIHDDFVTTFFVGFSNDSQTWVMYTNGYEEMTFHGNVDKDTPVLSELPEPVVARFIRIYPLTWNGSLCMRLEVLGCSVAPVYSYYAQNEVVATDDLDFRHHSYKDMRQLMKVVNEECPTITRTYSLGKSSRGLKIYAMEISDNPGEHELGEPEFRYTAGIHGNEVLGRELLLLLMQYLCREYRDGNPRVRSLVQDTRIHLVPSLNPDGYEVAAQMGSEFGNWALGLWTEEGFDIFEDFPDLNSVLWGAEERKWVPYRVPNNNLPIPERYLSPDATVSTEVRAIIAWMEKNPFVLGANLNGGERLVSYPYDMARTPTQEQLLAAAMAAARGEDEDEVSEAQETPDHAIFRWLAISFASAHLTLTEPYRGGCQAQDYTGGMGIVNGAKWNPRTGTINDFSYLHTNCLELSFYLGCDKFPHESELPREWENNKEALLTFMEQVHRGIKGVVTDEQGIPIANATISVSGINHGVKTASGGDYWRILNPGEYRVTAHAEGYTPSAKTCNVDYDIGATQCNFILARSNWKRIREIMAMNGNRPIPHIDPSRPMTPQQRRLQQRRLQHRLRLRAQMRLRRLNATTTLGPHTVPPTLPPAPATTLSTTIEPWGLIPPTTAGWEESETETYTEVVTEFGTEVEPEFGTKVEPEFETQLEPEFETQLEPEFEEEEEEEKEEEIATGQAFPFTTVETYTVNFGDF |  | NS3 |  |  |  | 2 | + |
| ANKRD28 (protein, UniProt O15084 1-1053, looked up) Serine/threonine-protein …: MAFLKLRDQPSLVQAIFNGDPDEVRALIFKKEDVNFQDNEKRTPLHAAAYLGDAEIIELLILSGARVNAKDSKWLTPLHRAVASCSEEAVQVLLKHSADVNARDKNWQTPLHIAAANKAVKCAEALVPLLSNVNVSDRAGRTALHHAAFSGHGEMVKLLLSRGANINAFDKKDRRAIHWAAYMGHIEVVKLLVSHGAEVTCKDKKSYTPLHAAASSGMISVVKYLLDLGVDMNEPNAYGNTPLHVACYNGQDVVVNELIDCGAIVNQKNEKGFTPLHFAAASTHGALCLELLVGNGADVNMKSKDGKTPLHMTALHGRFSRSQTIIQSGAVIDCEDKNGNTPLHIAARYGHELLINTLITSGADTAKRGIHGMFPLHLAALSGFSDCCRKLLSSGFDIDTPDDFGRTCLHAAAAGGNLECLNLLLNTGADFNKKDKFGRSPLHYAAANCNYQCLFALVGSGASVNDLDERGCTPLHYAATSDTDGKCLEYLLRNDANPGIRDKQGYNAVHYSAAYGHRLCLQLIASETPLDVLMETSGTDMLSDSDNRATISPLHLAAYHGHHQALEVLVQSLLDLDVRNSSGRTPLDLAAFKGHVECVDVLINQGASILVKDYILKRTPIHAAATNGHSECLRLLIGNAEPQNAVDIQDGNGQTPLMLSVLNGHTDCVYSLLNKGANVDAKDKWGRTALHRGAVTGHEECVDALLQHGAKCLLRDSRGRTPIHLSAACGHIGVLGALLQSAASMDANPATADNHGYTALHWACYNGHETCVELLLEQEVFQKTEGNAFSPLHCAVINDNEGAAEMLIDTLGASIVNATDSKGRTPLHAAAFTDHVECLQLLLSHNAQVNSVDSTGKTPLMMAAENGQTNTVEMLVSSASAELTLQDNSKNTALHLACSKGHETSALLILEKITDRNLINATNAALQTPLHVAARNGLTMVVQELLGKGASVLAVDENGYTPALACAPNKDVADCLALILATMMPVSSSSPLSSLTFNAINRYTNTSKTVSFEALPIMRNEPSSYCSFNNIGGEQEYLYTDVDELNDSDSETY |  | NS3 |  |  |  | 1 | + |
| ARFIP2 (protein, UniProt P53365 1-341, looked up) Arfaptin-2: MTDGILGKAATMEIPIHGNGEARQLPEDDGLEQDLQQVMVSGPNLNETSIVSGGYGGSGDGLIPTGSGRHPSHSTTPSGPGDEVARGIAGEKFDIVKKWGINTYKCTKQLLSERFGRGSRTVDLELELQIELLRETKRKYESVLQLGRALTAHLYSLLQTQHALGDAFADLSQKSPELQEEFGYNAETQKLLCKNGETLLGAVNFFVSSINTLVTKTMEDTLMTVKQYEAARLEYDAYRTDLEELSLGPRDAGTRGRLESAQATFQAHRDKYEKLRGDVAIKLKFLEENKIKVMHKQLLLFHNAVSAYFAGNQKQLEQTLQQFNIKLRPPGAEKPSWLEEQ |  | NS3 |  |  |  | 1 | + |
| ARHGEF6 (protein, UniProt Q15052 1-776, looked up) Rho guanine nucleotide …: MNPEEQIVTWLISLGVLESPKKTICDPEEFLKSSLKNGVVLCKLINRLMPGSVEKFCLDPQTEADCINNINDFLKGCATLQVEIFDPDDLYSGVNFSKVLSTLLAVNKATEDQLSERPCGRSSSLSAANTSQTNPQGAVSSTVSGLQRQSKTVEMTENGSHQLIVKARFNFKQTNEDELSVCKGDIIYVTRVEEGGWWEGTLNGRTGWFPSNYVREIKSSERPLSPKAVKGFETAPLTKNYYTVVLQNILDTEKEYAKELQSLLVTYLRPLQSNNNLSTVEVTSLLGNFEEVCTFQQTLCQALEECSKFPENQHKVGGCLLSLMPHFKSMYLAYCANHPSAVNVLTQHSDELEQFMENQGASSPGILILTTNLSKPFMRLEKYVTLLQELERHMEDTHPDHQDILKAIVAFKTLMGQCQDLRKRKQLELQILSEPIQAWEGEDIKNLGNVIFMSQVMVQYGACEEKEERYLMLFSNVLIMLSASPRMSGFIYQGKIPIAGTVVTRLDEIEGNDCTFEITGNTVERIVVHCNNNQDFQEWLEQLNRLIRGPASCSSLSKTSSSSCSAHSSFSSTGQPRGPLEPPQIIKPWSLSCLRPAPPLRPSAALGYKERMSYILKESSKSPKTMKKFLHKRKTERKPSEEEYVIRKSTAALEEDAQILKVIEAYCTSANFQQGHGSSTRKDSIPQVLLPEEEKLIIEETRSNGQTIMEEKSLVDTVYALKDEVRELKQENKRMKQCLEEELKSRRDLEKLVRRLLKQTDECIRGESSSKTSILP |  | NS3 |  |  |  | 1 | + |
